{
  "source": "patent US20100215651A1",
  "about": "(GLENMARK PHARMACEUTICALS S A, published 2010)",
  "binders": {"B1": {"name": "VH16-R94K/VL43 (antibody, human IgG1)", "heavy": "not shown", "VL": "DIVMTQTPSSLSASVGDRVTITCRASQDISKYLNWYQQKPGKAPKLLIYHTSRLHSGVPSRFSGSGSGTDFTLTISSLQPEDFATYYCQQGNTLPYTFGPGTKVDIKRTVAA", "notes": "Full-length human IgG1/kappa"}, "B2": {"name": "VH16 R94K VL43 P44I (antibody, human IgG1, V domains shown)", "VH": "QVQLVQSGGGVVQPGRSLRLSCAASGVSLPDYGVSWVRQAPGKGLEWVAVIWGSETTYYNSALKSRFTISRDNSKNTLYLQMNSLRAEDTAVYYCAKHYYYGGSYAMDYWGQGTLVTVSS", "VL": "DIVMTQTPSSLSASVGDRVTITCRASQDISKYLNWYQQKPGKAIKLLIYHTSRLHSGVPSRFSGSGSGTDFTLTISSLQPEDFATYYCQQGNTLPYTFGPGTKVDIKR", "notes": "Full-length human IgG1/kappa; substitutions in Kabat numbering"}, "B3": {"name": "VH16-R94K/VL43-V3Q-T7S-P44I-N92A (antibody, human IgG1, kappa, V domains shown)", "VH": "B2 VH", "VL": "B2 VL with V3Q, T7S, N92A", "notes": "human IgG1/kappa"}},
  "key": {"human CD19 [1]": {"molecular_target": "T1, human CD19 (human, UniProt P15391 20-556)", "T1 construct": "CD19 as expressed on Raji, NALM-6 and SU-DHL-6 cells; also called CD19 antigen; B-cell surface antigen B4", "T1 sequence": "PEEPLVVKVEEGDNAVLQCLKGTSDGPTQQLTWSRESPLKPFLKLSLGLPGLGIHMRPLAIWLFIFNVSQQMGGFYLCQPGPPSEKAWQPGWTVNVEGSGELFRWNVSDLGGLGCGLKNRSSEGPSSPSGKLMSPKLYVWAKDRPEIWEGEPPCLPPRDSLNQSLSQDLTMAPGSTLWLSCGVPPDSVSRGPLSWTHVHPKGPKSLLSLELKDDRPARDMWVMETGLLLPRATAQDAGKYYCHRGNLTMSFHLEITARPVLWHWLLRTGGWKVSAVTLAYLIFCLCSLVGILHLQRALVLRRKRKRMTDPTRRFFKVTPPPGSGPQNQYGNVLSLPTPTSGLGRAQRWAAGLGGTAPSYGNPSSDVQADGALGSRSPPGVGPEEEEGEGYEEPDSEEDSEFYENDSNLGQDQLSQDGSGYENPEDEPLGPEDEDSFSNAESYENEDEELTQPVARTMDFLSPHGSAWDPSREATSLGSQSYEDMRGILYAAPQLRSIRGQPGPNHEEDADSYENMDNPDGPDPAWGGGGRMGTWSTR", "experiment": "flow cytometry, Raji cells, MPF vs chimeric FMC63", "description": "(§1) Binding of the CD19 humanized monoclonal antibodies by flow cytometry to Raji tumor cells (human Burkitt lymphoma, DSMZ ACC319), NALM-6 (human B cell precursor leukemia, DSMZ ACC128) and SU-DHL-6 (human B cell lymphoma, DSMZ ACC572) (all cell lines from DSMZ Braunschweig, Deutschland) was assessed. Cells were incubated with serial dilutions of each humanized monoclonal antibody. An irrelevant human IgG1 was used as a negative control. The cells were washed and detected by a phycoerythrin-labeled (PE) anti-human secondary antibody (eBioscience, CA, USA) and analyzed by flow cytometry. […] From MFI versus antibody concentration curves, Mid-Point Fluorescence (MPF) value for each anti-CD19 humanized antibody was calculated using the software GraphPad Prism 5 (CA, USA)."}, "human CD19 [2]": {"molecular_target": "T1, human CD19", "experiment": "flow cytometry on SU-DHL-6 cells, PE-labelled anti-human secondary antibody, MFI against antibody concentration", "description": "as §1"}, "human CD19 [3]": {"molecular_target": "T1, human CD19", "experiment": "flow cytometry, Raji cells, MPF vs chimeric FMC63", "remark": "listed apart in the source"}, "human CD19 [4]": {"molecular_target": "T1, human CD19", "experiment": "flow cytometry, Raji cells, MPF vs chimeric FMC63", "description": "as §1", "remark": "listed apart in the source"}, "human CD19 [5]": {"molecular_target": "T1, human CD19", "experiment": "competition with 0.2 nM Eu3+-labelled chimeric FMC63 on Raji cells", "description": "To that aim, 100 μl volumes of Raji cells in RPMI-1640 medium (Chemie Brunschwig AG, PAA, Basel, Switzerland) supplemented with 10% fetal bovine serum (FBS, Chemie Brunschwig AG, PAA, Basel, Switzerland), 2 mM ultraglutamine 1 (Lonza, Verviers, Belgium) and 1% penicillin/streptomycin (Chemie Brunschwig AG, PAA, Basel, Switzerland), prepared at concentration of 1×10⁶ cells/ml were seeded in a U-bottomed 96-well plate. […] The antibody dilutions were cooled down to 4° C. before 100 μl was taken and added on the Raji cells. […] Cells were incubated with the antibodies for 15 minutes on ice. After reaching equilibrium, the cells were centrifuged at 1300 RPM for 2 minutes and supernatant was discarded. Cell pellets were washed twice with 200 μl of cold binding buffer PBS-2.5% FBS-0.05% NaN₃, and resuspended into 100 μl of Delfia solution. Cell bound Eu³+-FMC63 was measured with time resolved fluorescence as described above. The amount of Eu³+-FMC63 (fmole) per well was determined and plotted versus the total amount of unlabelled antibody."}, "human CD19 [6]": {"molecular_target": "T1, human CD19", "experiment": "flow cytometry, NALM-6 cells, MPF vs chimeric FMC63", "description": "as §1"}, "human CD19 [7]": {"molecular_target": "T1, human CD19", "experiment": "Scatchard analysis, Eu3+-labelled antibody on Raji cells", "description": "(§2) Raji cells as described in Example 2 were grown in RPMI-1640 medium (Chemie Brunschwig AG, PAA, Basel, Switzerland) supplemented with 10% fetal bovine serum (FBS, Chemie Brunschwig AG, PAA, Basel, Switzerland), 2 mM ultraglutamine 1 (Lonza, Verviers, Belgium) and 1% penicillin/streptomycin (Chemie Brunschwig AG, PAA, Basel, Switzerland). The cells were washed with the same culture medium and adjusted to a final concentration of 1×10⁶ cells/ml. A 100 μl volume of Raji cells was seeded in U-bottomed 96-well plate. […] Cells were incubated with Eu³⁺-antibody for 15 minutes on ice to reach equilibrium. The amount of free Eu³⁺-labelled antibodies were measured by transferring aliquots of cell-free supernatant (volumes were empirically adjusted depending on antibody concentration; cells were spun at 1300 RPM for 2 min) into a fresh plate containing 100 μl of Delfia solution (PerkinElmer, MA, USA; an enhancer of Eu³⁺ fluorescence). To ensure complete removal of the supernatant, cells were spin down once more at 1300 RPM for 2 minutes. After the second centrifugation, the supernatant was discarded, and cells were washed twice with 200 μl of cold binding buffer (PBS-2.5% FBS-0.05% NaN₃). Cell pellets were resuspended into 100 μl of Delfia solution."}, "human CD19 [8]": {"molecular_target": "T1, human CD19", "experiment": "Scatchard analysis (Bound/Free against Bound) of europium-labelled antibody on Raji cells, time resolved fluorescence", "description": "as §2"}, "human CD19 [9]": {"molecular_target": "T1, human CD19", "experiment": "cell-based or functional assay"}},
  "note": "Changes are numbered by the printed parent chain. Numbers in names are those of the source.",
  "data": [
    {"binder": "B1", "values": [
      {"measurement": "relative MPF (% of chimeric FMC63)", "setting": "human CD19 [1]", "result": 26.8, "unit": "%"},
      {"measurement": "EC50 (read off the curve)", "setting": "human CD19 [2]", "result": "~0.2", "unit": "µg/mL"},
      {"measurement": "relative MPF (% of chimeric FMC63)", "setting": "human CD19 [3]", "result": 27.1, "unit": "%"},
      {"measurement": "relative MPF (% of chimeric FMC63)", "setting": "human CD19 [4]", "result": 26.8, "unit": "%"},
      {"measurement": "Ki", "setting": "human CD19 [5]", "result": 7.6, "unit": "nM"},
      {"measurement": "relative MPF (% of chimeric FMC63)", "setting": "human CD19 [6]", "result": 14.4, "unit": "%"},
      {"measurement": "Kd", "setting": "human CD19 [7]", "result": 47, "unit": "nM"}
    ]},
    {"binder": "B2", "values": [
      {"measurement": "EC50 (read off the curve)", "setting": "human CD19 [2]", "result": "~0.09", "unit": "µg/mL"},
      {"measurement": "Kd", "setting": "human CD19 [8]", "result": 19, "unit": "nM"}
    ]},
    {"binder": "B3", "values": [
      {"measurement": "EC50 (read off the curve)", "setting": "human CD19 [2]", "result": "~0.09", "unit": "µg/mL"},
      {"measurement": "relative MPF (% of chimeric FMC63)", "setting": "human CD19 [3]", "result": 83.3, "unit": "%"},
      {"measurement": "ADCC: specific lysis of Raji cells by PBMC (LDH release), against IgG1 control", "setting": "human CD19 [9]", "result": "≥ 3", "unit": "fold"},
      {"measurement": "Ki", "setting": "human CD19 [5]", "result": 3.9, "unit": "nM"}
    ]}
  ]
}
